# Reference: PMC8940892
# Biological target: small capsid protein (SCP, VP26) of pseudorabies virus (pseudorabies virus (PRV), Bartha strain)
# Experiment: cryo-EM structure
substance,measurement,value
"small capsid protein (SCP, VP26) of pseudorabies virus (natural protein)",stoichiometry N,6
